Non-standard residues stand in square brackets, D forms with d. No end group written: not given here. Bpa = N[C@@H](Cc1ccc(C(=O)c2ccccc2)cc1)C(=O)O; hArg = N=C(N)NCCCC[C@H](N)C(=O)O; Ac5c = NC1(C(=O)O)CCCC1; Deg = CCC(N)(CC)C(=O)O; desNH2 = X is (desNH2); Aib = CC(C)(N)C(=O)O
Molecular target: -
Test: competition binding, 125I-PTH(1-15) tracer, HKRK-B28 cells

Row | Binder | IC50 [nM]
1 | [Deg][Bpa][Deg]EIQLMHQ[hArg]AKW-NH2 (N-terminus assumed; SMILES CC[C@H](C)[C@H](NC(=O)[C@H](CCC(=O)O)NC(=O)C(CC)(CC)NC(=O)[C@H](Cc1ccc(C(=O)c2ccccc2)cc1)NC(=O)C(N)(CC)CC)C(=O)N[C@@H](CCC(N)=O)C(=O)N[C@@H](CC(C)C)C(=O)N[C@@H](CCSC)C(=O)N[C@@H](Cc1c[nH]cn1)C(=O)N[C@@H](CCC(N)=O)C(=O)N[C@@H](CCCCNC(=N)N)C(=O)N[C@@H](C)C(=O)N[C@@H](CCCCN)C(=O)N[C@@H](Cc1c[nH]c2ccccc12)C(N)=O) [Deg1,3,Bpa2] | 840
2 | desNH2-[Ac5c]V[Aib]EIQLMHQ[hArg]AKW-NH2 [desNH2-AC5C1] | 1800

Now those with a lower IC50, led by results:

Row | IC50 [nM] | Binder
3 | 230 | [Deg]V[Deg]EIQLMHQ[hArg]AKW-NH2 (N-terminus assumed; SMILES CC[C@H](C)[C@H](NC(=O)[C@H](CCC(=O)O)NC(=O)C(CC)(CC)NC(=O)[C@@H](NC(=O)C(N)(CC)CC)C(C)C)C(=O)N[C@@H](CCC(N)=O)C(=O)N[C@@H](CC(C)C)C(=O)N[C@@H](CCSC)C(=O)N[C@@H](Cc1c[nH]cn1)C(=O)N[C@@H](CCC(N)=O)C(=O)N[C@@H](CCCCNC(=N)N)C(=O)N[C@@H](C)C(=O)N[C@@H](CCCCN)C(=O)N[C@@H](Cc1c[nH]c2ccccc12)C(N)=O) [Deg1,3]
4 | 30 | [Ac5c]V[Aib]EIQLMHQ[hArg]AKW-NH2 (N-terminus assumed; SMILES CC[C@H](C)[C@H](NC(=O)[C@H](CCC(=O)O)NC(=O)C(C)(C)NC(=O)[C@@H](NC(=O)C1(N)CCCC1)C(C)C)C(=O)N[C@@H](CCC(N)=O)C(=O)N[C@@H](CC(C)C)C(=O)N[C@@H](CCSC)C(=O)N[C@@H](Cc1c[nH]cn1)C(=O)N[C@@H](CCC(N)=O)C(=O)N[C@@H](CCCCNC(=N)N)C(=O)N[C@@H](C)C(=O)N[C@@H](CCCCN)C(=O)N[C@@H](Cc1c[nH]c2ccccc12)C(N)=O) [parent]

Source: US20070203071A1 (published 2007)
